Reference: US20200102387A1
Read-outs that look alike come from different tables or passages of the source.

Tests used:
[1] = biological target: FcγR2A (CD32aR131) (human) (UniProt P12318); assay: cell binding, FcγR-engineered HEK293 cells
[2] = biological target: FcγR2A (CD32aH131) (human) (UniProt P12318); assay: cell binding, FcγR-engineered HEK293 cells
FcγR1 (CD64) (human) = FcγR1 (CD64) (human) (UniProt P12314); assay: cell binding, FcγR-engineered HEK293 cells
[3] = biological target: FcγR3A (CD16aV158) (human) (UniProt P08637); assay: cell binding, FcγR-engineered HEK293 cells
[4] = biological target: FcγR3A (CD16aF158) (human) (UniProt P08637); assay: cell binding, FcγR-engineered HEK293 cells
FcγR2B (human) [5] = biological target: FcγR2B (human) (UniProt P31994); assay: cell binding, FcγR-engineered HEK293 cells
[6] = biological target: FcγR3A (CD16aV158) (human) (UniProt P08637); assay: cell binding, FcγR-engineered HEK293 cells; remark: listed apart in the source
FcγR2B (human) [7] = biological target: FcγR2B (human) (UniProt P31994); assay: cell binding, FcγR-engineered HEK293 cells; remark: listed apart in the source
[8] = biological target: mouse SIRPα on cells (mouse) (UniProt P97797); assay: flow cytometry on Mouse SIRPα-CHO-K1 cells
[9] = biological target: rat SIRPα on CHO-K1 cells (rat) (UniProt P97710); assay: flow cytometry on Rat SIRPα-CHO-K1 cells
Sequence of rat SIRPα on CHO-K1 cells (rat) (P97710 32-509): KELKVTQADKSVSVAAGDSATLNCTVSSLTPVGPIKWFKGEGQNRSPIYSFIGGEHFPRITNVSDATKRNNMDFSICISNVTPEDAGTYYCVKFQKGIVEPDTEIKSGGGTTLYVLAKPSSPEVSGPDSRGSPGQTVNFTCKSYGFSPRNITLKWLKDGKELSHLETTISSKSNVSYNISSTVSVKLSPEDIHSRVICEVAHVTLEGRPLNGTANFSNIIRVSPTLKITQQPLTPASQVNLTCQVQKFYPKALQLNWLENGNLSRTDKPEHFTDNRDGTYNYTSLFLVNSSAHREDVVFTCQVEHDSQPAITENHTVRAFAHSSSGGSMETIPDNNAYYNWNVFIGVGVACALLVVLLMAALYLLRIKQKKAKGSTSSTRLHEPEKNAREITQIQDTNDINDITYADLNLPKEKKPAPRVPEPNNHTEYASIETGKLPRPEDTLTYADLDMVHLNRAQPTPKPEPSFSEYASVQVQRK

Sequence of FcγR1 (CD64) (human) (P12314 16-374): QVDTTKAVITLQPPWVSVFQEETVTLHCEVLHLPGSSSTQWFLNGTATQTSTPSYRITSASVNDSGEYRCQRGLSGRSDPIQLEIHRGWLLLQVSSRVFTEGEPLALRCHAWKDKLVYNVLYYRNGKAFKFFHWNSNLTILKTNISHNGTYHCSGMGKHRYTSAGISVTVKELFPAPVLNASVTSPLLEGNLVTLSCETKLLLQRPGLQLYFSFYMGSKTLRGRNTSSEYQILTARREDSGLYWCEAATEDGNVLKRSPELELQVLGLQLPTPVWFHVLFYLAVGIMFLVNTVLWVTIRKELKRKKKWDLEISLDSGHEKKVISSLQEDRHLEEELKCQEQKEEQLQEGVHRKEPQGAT
Sequence of FcγR3A (CD16aV158) (human) (P08637 17-254 F176V): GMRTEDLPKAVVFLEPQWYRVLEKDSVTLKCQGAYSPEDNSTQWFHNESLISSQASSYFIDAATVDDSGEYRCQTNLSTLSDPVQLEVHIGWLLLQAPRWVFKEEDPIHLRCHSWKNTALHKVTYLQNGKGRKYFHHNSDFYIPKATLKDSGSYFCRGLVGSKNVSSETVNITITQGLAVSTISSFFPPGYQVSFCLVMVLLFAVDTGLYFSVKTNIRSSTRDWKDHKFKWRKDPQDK
Sequence of FcγR2A (CD32aH131) (human) (P12318 34-317): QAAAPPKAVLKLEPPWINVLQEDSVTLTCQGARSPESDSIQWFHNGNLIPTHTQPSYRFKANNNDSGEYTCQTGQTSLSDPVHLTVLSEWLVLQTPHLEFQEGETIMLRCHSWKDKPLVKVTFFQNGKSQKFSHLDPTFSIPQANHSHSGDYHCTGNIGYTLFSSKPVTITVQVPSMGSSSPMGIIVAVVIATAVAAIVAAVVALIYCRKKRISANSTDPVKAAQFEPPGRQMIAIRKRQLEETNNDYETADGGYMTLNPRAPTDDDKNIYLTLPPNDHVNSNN
Sequence of FcγR2B (human) (P31994 43-310): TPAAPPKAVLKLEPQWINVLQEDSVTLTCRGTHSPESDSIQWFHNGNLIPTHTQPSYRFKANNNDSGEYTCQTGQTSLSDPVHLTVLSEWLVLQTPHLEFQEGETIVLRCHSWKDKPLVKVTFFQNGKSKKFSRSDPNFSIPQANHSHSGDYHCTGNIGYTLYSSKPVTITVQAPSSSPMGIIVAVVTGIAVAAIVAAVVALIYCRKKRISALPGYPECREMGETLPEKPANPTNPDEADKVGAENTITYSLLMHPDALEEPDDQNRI
Sequence of FcγR2A (CD32aR131) (human) (P12318 34-317 H167R): as the sequence (P12318 34-317) above, with H134R counted along it
Sequence of mouse SIRPα on cells (mouse) (P97797 32-513): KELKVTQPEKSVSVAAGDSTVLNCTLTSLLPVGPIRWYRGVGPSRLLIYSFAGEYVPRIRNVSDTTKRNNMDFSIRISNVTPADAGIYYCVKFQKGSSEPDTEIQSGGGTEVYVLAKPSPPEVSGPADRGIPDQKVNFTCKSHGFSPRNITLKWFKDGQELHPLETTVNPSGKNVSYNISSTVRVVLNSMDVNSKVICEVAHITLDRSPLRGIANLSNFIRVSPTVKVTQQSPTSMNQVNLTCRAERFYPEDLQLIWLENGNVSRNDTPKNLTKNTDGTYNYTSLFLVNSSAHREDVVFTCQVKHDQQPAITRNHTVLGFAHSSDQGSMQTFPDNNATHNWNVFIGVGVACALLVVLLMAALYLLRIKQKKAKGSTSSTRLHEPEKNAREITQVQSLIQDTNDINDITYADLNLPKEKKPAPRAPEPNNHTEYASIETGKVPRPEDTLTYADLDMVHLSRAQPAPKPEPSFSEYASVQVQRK
Sequence of FcγR3A (CD16aF158) (human) (P08637 17-254): as the sequence (P08637 17-254 F176V) above, with V160F counted along it

Commercially Available IgG1 (antibody)
EC50 [1]: 188 nM
EC50 [2]: 361 nM
EC50 (FcγR1 (CD64) (human)): 0.83 nM

Isotype Control-IgG1 (antibody)
EC50 [1]: 90.2 nM
EC50 [3]: 449 nM
EC50 [4]: 311 nM
EC50 (FcγR2B (human) [5]): 1200 nM
EC50 [2]: 137 nM
EC50 (FcγR1 (CD64) (human)): 1.18 nM
EC50 [6]: 127 nM
EC50 (FcγR2B (human) [7]): 2240 nM

anti-mouse-SIRPα antibody P84
EC50 (read off the curve) [8]: 2 nM

anti-rat-SIRPα antibody OX-41
EC50 (read off the curve) [9]: 2 nM
